How the values were obtained:
Assay in all cases: FP
[1] = target: P7, fluorescein-labelled proline-rich peptide from the SOS1 proline-rich domain (human, UniProt Q07889, fluorescein (FITC) label, position not stated)
[2] = target: RP2, fluorescein-labelled reference peptide from the N-terminal extension of the RHO GTPase WRCH1/RHOU (human, UniProt Q7L0Q8, fluorescein (FITC) label, position not stated)
[3] = target: P9, fluorescein-labelled proline-rich peptide from the SOS1 proline-rich domain (human, UniProt Q07889, fluorescein (FITC) label, position not stated)
[4] = target: RP1, fluorescein-labelled reference peptide, a SOS1 derivative encompassing part of P3 (human, UniProt Q07889, fluorescein (FITC) label, position not stated)
[5] = target: P4, fluorescein-labelled proline-rich peptide from the SOS1 proline-rich domain (human, UniProt Q07889, fluorescein (FITC) label, position not stated)
[6] = target: P2, fluorescein-labelled proline-rich peptide from the SOS1 proline-rich domain (human, UniProt Q07889, fluorescein (FITC) label, position not stated)
[7] = target: P3, fluorescein-labelled proline-rich peptide from the SOS1 proline-rich domain (human, UniProt Q07889, fluorescein (FITC) label, position not stated)

B1: DLG2 SH3 domain, GST cleaved (domain or fragment)
chain: KRSLYVRAMFDYDKSKDSGLPSQGLSFKYGDILHVINASDDEWWQARRVMLEGDSEEMGVIPSKRRVERKE
[1]
  Kd: 58.5 µM

B2: BIN1 SH3 domain, GST cleaved (domain or fragment)
chain: GFMFKVQAQHDYTATDTDELQLKAGDVVLVIPFQNPEEQDEGWLMGVKESDWNQHKELEKCRGVFPENFTERVP
[2]
  Kd: 48 µM
[3]
  Kd: 47 µM
[1]
  Kd: 12 µM

B3: NCK1-3, third SH3 domain of NCK1, GST cleaved (domain or fragment)
chain: QVLHVVQALYPFSSSNDEELNFEKGDVMDVIEKPENDPEWWKCRKINGMVGLVPKNYVTVMQN
[2]
  Kd: 2.5 µM
[4]
  Kd: 24.6 µM

B4: ABL2 SH3 domain, GST cleaved (domain or fragment)
chain: SDPNLFVALYDFVASGDNTLSITKGEKLRVLGYNQNGEWSEVRSKNGQGWVPSNYITPVNS
[5]
  Kd: 125 µM
[4]
  Kd: 11 µM
[1]
  Kd: 67.3 µM

B5: ARHGEF30 (Obscurin/OBSCN) SH3 domain, GST cleaved (domain or fragment)
chain: EIFDIYVVTADYLPLGAEQDAITLREGQYVEVLDAAHPLRWLVRTKPTKSSPSRQGWVSPAYLDRRLK
[1]
  Kd: 8.9 µM

B6: NCK1-2 SH3 domain, GST cleaved (domain or fragment)
chain: DLNMPAYVKFNYMAEREDELSLIKGTKVIVMEKCSDGWWRGSYNGQVGWFPSNYVTEEGD
[4]
  Kd: 2 µM

B7: ABI1 SH3 domain, GST cleaved (domain or fragment)
chain: NYIEKVVAIYDYTKDKDDELSFMEGAIIYVIKKNDDGWYEGVCNRVTGLFPGNYVESIMH
[5]
  Kd: 24.6 µM
[6]
  Kd: 60.7 µM

B8: ARHGAP12 SH3 domain, GST cleaved (domain or fragment)
chain: PGQVYIEVEYDYEYEAKDRKIVIKQGERYILVKKTNDDWWQVKPDENSKAFYVPAQYVKEVTR
[2]
  Kd: 15.5 µM
[7]
  Kd: 13.8 µM
[4]
  Kd: 16.7 µM

From publication PMC10814857 (2024)
